We go through 2 molecules from US20200230253A1.

The target of assay [1] is mannose phosphate 6 receptor (M6PR) expressed on HepG2 cells (human). As to the kind of experiment: cell-based or functional assay.
In assay [2] the target is mannose phosphate 6 receptor (M6PR), immobilized on a CM5 chip. As to the kind of experiment: SPR, M6PR immobilized; the reference itself.
For assay [3] the target is unchanged. As to the kind of experiment: SPR (BIACORE T200), M6PR immobilized on CM5 chip by amine coupling. (SPR reads the build-up and loss of mass on a sensor chip optically.)
Assay [4] has the same target. Description: SPR (BIACORE T200), M6PR immobilized on CM5 chip by amine coupling, analyte 200 nM to 12.5 nM in HBS-EP.
The target is the same in assay [5]. As to the kind of experiment: SPR, M6PR immobilized; relative to iduronate-2-sulfatase.

As usually defined, the Kd is a measure of binding affinity in units of concentration. By koff is commonly meant a measure of how fast the partners let go of each other. The kon is a measure of how fast the partners come together. The low end stands for slower complex formation, the high end for faster complex formation. “iduronate-2-sulfatase (Elaprase manufactured by Shire) (from UniProt P22304 26-550) (enzyme)”: the intracellular absorption activity (Vmax), HepG2 cells, 24 h at 37 C, ELISA of cell content in assay [1] worked out at 9.5 nM. Besides, in assay [2], the relative binding affinity from KD (% of iduronate-2-sulfatase) worked out at 100%, the relative ka (% of iduronate-2-sulfatase) worked out at 100% and the relative kd (% of iduronate-2-sulfatase) worked out at 100%. Also, in assay [3], the Kd amounted to 29.1 nM and the koff is 0.00395 s⁻¹. In assay [4], this molecule returned an on-rate (kon) of 136000 M⁻¹ s⁻¹.

B1: long-acting iduronate-2-sulfatase conjugate (protein, part only; not given: Immunoglobulin Fc and PEG linker, human, UniProt P22304 26-550, looked up, not shown: a dimerising Fc or GST)
chain: SETQANSTTDALNVLLIIVDDLRPSLGCYGDKLVRSPNIDQLASHSLLFQNAFAQQAVCAPSRVSFLTGRRPDTTRLYDFNSYWRVHAGNFSTIPQYFKENGYVTMSVGKVFHPGISSNHTDDSPYSWSFPPYHPSSEKYENTKTCRGPDGELHANLLCPVDVLDVPEGTLPDKQSTEQAIQLLEKMKTSASPFFLAVGYHKPHIPFRYPKEFQKLYPLENITLAPDPEVPDGLPPVAYNPWMDIRQREDVQALNISVPYGPIPVDFQRKIRQSYFASVSYLDTQVGRLLSALDDLQLANSTIIAFTSDHGWALGEHGEWAKYSNFDVATHVPLIFYVPGRTASLPEAGEKLFPYLDPFDSASQLMEPGRQSMDLVELVSLFPTLAGLAGLQVPPRCPVPSFHVELCREGKNLLKHFRFRDLEEDPYLPGNPRELIAYSQYPRPSDIPQWNSDKPSLKDIKIMGYSIRTIDYRYTVWVGFNPDEFLANFSDIHAGELYFVDSDPLQDHNMYNDSQGGDLFQLLMP
modifications: N-terminus linked through a 10 kDa polyethylene glycol linker (from ALD-PEG-ALD, reductive amination) to the N-terminal proline of one chain of the immunoglobulin Fc
As for B1, in assay [1], the intracellular absorption activity (Vmax), HepG2 cells, 24 h at 37 C, ELISA of cell content turned out to be 10.8 ng/mL and the intracellular absorption activity relative to iduronate-2-sulfatase is 81.4%. Moreover, in assay [5], the relative binding affinity from KD (% of iduronate-2-sulfatase) is 88%, the relative ka (% of iduronate-2-sulfatase) amounted to 67% and the relative kd (% of iduronate-2-sulfatase) was 78%. Moreover, in assay [3], the Kd was determined as 33.1 nM, the koff was 0.00307 s⁻¹ and the kon amounted to 92000 M⁻¹ s⁻¹.
